These results are taken from US20240018206A1.

In the test the target is IL-1 receptor (IL-1R1) on A375.s2 cells (UniProt P14778). The test is described as follows: cell-based or functional assay.
UniProt P14778, sequence (P14778 18-569 limits assumed): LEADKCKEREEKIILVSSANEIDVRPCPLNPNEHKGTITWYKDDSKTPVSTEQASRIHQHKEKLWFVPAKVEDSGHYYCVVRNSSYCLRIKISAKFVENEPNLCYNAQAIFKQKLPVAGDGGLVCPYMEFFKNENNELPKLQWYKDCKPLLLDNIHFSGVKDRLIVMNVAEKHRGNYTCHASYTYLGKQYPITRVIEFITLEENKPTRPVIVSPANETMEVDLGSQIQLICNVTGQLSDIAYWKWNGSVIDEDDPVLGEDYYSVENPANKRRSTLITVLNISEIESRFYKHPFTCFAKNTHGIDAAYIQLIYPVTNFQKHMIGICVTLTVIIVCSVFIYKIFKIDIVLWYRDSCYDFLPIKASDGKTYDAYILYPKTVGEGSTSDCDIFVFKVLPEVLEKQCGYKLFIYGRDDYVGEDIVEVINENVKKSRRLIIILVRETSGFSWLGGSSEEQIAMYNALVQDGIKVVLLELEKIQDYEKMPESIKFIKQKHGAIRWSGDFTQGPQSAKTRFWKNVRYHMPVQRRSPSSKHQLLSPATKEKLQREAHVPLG

“Wild-type IL-1RN-Fc of Table 2 (from UniProt P18510 26-177) (Fc fusion)” yielded an IC50(µg/ml), inhibition of IL-1β induced A375.s2 apoptosis (MTS, 490 nM) of 12.1 µg/mL.
With “IL-1RN-Fc, single-target comparator of Table 4 (from UniProt P18510 26-177) (Fc fusion)”, the IL1RN activity IC50 is 0.333 µg/mL.
In turn, “IL-1RN D74N-Fc without linker (from UniProt P18510 26-177) (Fc fusion)” showed an IC50(µg/ml), inhibition of IL-1β induced A375.s2 apoptosis (MTS, 490 nM) of 4.85 µg/mL and a biological activity relative to the wild type of 3 fold.
Regarding “IL-1RN-TNFR2-Fc dual-target fusion protein (IL-1RN D74N, TNFR2, hIgG4 Fc S228P) (Fc fusion)”, the IL1RN activity IC50 was determined as 0.714 µg/mL.
